Test results taken from patent US20250115926A1, “DEREGULATED DHS AND TYRA ENZYMES OF GRASSES ENABLE EFFICIENT PRODUCTION OF BOTH TYROSINE AND PHENYLALANINE” (priority 2023, published 2025).

Assays:
[1] = test system: C=C(OP(=O)(O)O)C(=O)O; experiment: purified protein, by the assay type; details: other: 2 mM E4P, 37° C., pH 7.5
[2] = test system: O=C[C@H](O)[C@H](O)COP(=O)(O)O; experiment: purified protein, by the assay type; details: other: 1.5 mM PEP, 37° C., pH 7.5
Method: (§1) To examine their functional properties, the recombinant DHS enzymes of Brachypodium were produced and characterized in vitro.
(§2) All DHS effectors tested were included in the initial reaction mixtures at a concentration of 0.5 mM, except for IC50 determination for arogenate and tryptophan, in which variable concentrations were used. To ensure at least 10 minutes of linear reaction, enzyme mass per reaction was carefully adjusted to between 100 to 300 ng (depending on the specific activity of each specific isoform) using DHS storage buffer supplemented with BSA. […] The enzymatic reaction was started with the addition of E4P (variable concentration, see below).
(§3) The DHS assay for UHPLC-MS quantification was set up using the same settings as described in the previous paragraph for the UV-based DHS assay, which guaranteed at least 10 minutes of reaction linearity. After a 10-minute incubation, 20 μL of the reactions (out of a total volume of 50 μL) were mixed into 80 μL of methanol, vortexed and transferred to vials for injection. Analysis of DAHP by UHPLC-MS was conducted using the same chromatographic settings as described for the UHPLC-MS analysis of soluble metabolites and compared with an authentic DAHP standard (Sta. Cruz biotechnology, cat. no. sc-216432).

[3] = test system: O=C[C@H](O)[C@H](O)COP(=O)(O)O; experiment: DHS activity: kinetics and effector inhibition; format: biochemical, Brachypodium distachyon; details: other: 1.5 mM PEP, 37° C., pH 7.5
Method: as §1, §2, §3

Chain of Brachypodium distachyon BdDHS2, SEQ ID NO: 5, recombinant (Brachypodium distachyon) (chain, as listed by the source): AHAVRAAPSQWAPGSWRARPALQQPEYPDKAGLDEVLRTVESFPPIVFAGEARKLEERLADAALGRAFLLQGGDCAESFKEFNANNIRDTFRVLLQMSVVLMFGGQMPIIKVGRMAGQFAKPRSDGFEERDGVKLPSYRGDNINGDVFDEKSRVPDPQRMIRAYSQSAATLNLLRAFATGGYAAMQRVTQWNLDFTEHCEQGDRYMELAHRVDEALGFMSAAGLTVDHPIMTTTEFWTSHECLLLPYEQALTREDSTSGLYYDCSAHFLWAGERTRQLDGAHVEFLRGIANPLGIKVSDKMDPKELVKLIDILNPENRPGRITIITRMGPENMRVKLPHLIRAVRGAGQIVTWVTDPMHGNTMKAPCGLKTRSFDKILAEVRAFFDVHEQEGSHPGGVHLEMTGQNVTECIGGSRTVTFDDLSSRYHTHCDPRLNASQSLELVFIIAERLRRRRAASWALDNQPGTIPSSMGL
Chain of Brachypodium distachyon BdDHS1a, SEQ ID NO: 1, recombinant (Brachypodium distachyon) (chain, as listed by the source): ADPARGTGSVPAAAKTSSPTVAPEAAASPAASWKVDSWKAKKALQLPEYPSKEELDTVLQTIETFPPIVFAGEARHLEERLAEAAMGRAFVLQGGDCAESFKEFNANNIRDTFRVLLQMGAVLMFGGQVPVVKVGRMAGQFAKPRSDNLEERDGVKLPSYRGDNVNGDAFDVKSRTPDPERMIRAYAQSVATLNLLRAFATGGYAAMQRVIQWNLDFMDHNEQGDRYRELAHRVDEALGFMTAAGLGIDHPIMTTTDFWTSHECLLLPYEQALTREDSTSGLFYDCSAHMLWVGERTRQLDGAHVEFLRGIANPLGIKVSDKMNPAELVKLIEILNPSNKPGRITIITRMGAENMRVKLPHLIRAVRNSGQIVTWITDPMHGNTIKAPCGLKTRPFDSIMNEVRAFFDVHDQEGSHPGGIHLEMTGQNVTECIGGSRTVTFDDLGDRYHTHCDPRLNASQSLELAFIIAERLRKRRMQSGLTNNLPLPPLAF
Chain of Brachypodium distachyon BdDHS1b, SEQ ID NO: 3, recombinant (Brachypodium distachyon) (chain, as listed by the source): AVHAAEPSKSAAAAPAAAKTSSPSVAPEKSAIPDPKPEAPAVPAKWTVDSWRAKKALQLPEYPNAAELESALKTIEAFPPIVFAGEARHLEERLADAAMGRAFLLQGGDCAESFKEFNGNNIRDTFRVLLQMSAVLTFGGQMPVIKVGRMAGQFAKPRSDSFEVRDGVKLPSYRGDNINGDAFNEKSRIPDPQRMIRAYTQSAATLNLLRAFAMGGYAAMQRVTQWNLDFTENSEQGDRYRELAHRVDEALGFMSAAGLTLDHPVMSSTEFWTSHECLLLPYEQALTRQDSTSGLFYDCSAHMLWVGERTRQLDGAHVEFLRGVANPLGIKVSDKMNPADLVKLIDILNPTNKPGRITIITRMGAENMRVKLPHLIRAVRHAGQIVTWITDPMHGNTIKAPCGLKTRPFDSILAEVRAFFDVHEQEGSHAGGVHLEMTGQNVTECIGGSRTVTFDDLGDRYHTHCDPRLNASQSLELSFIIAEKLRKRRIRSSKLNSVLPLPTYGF

Substance | Km [1] | kcat [1] | kcat/Km [1] | K0.5 [2] | kcat [2] | K0.5 [3] | kcat [3]
Brachypodium distachyon BdDHS1a, SEQ ID NO: 1, recombinant (Brachypodium distachyon) | 130 µM | 17 s⁻¹ | 126000 M⁻¹ s⁻¹ | 0.55 mM | 17 s⁻¹ |  | 
Brachypodium distachyon BdDHS1b, SEQ ID NO: 3, recombinant (Brachypodium distachyon) | 200 µM | 11.3 s⁻¹ | 57200 M⁻¹ s⁻¹ |  |  |  | 
Brachypodium distachyon BdDHS2, SEQ ID NO: 5, recombinant (Brachypodium distachyon) | 190 µM | 5.6 s⁻¹ | 29000 M⁻¹ s⁻¹ |  |  | 0.51 mM | 5.6 s⁻¹
